Assays:
[1] = target: TycB1(S5Bpa)-His6, TycB1[COM^A-C-A-PCP] with p-benzoylphenylalanine at Ser5 (construct 25), holo-form; assay: cross-linking
[2] = target: TycB1-His6, TycB1[COM^A-C-A-PCP] (construct 17), holo-form

Row | Substance | T-crosslink intensity relative to WT TycA [1] [%] | D-Phe-L-Pro-DKP production with TycB1, normalised to wild-type TycA [2] [%] | L-crosslink intensity relative to WT TycA [1] [%]
1 | SBP-TycA P1063A, mutation in the lid (construct 24), holo-form (enzyme) | 46 |  | 
2 | SBP-TycA with the single V1059 in the seam region deleted (construct 23), holo-form (enzyme) | 33 |  | 
3 | SBP-TycA ΔV1059 to K1069, seam and lid deletion mutant (construct 19), holo-form (enzyme) | 5 | 9 | 38

— publication doi:10.1101/2025.06.08.658476
